Results as given in patent publication EP4786492A1.

Tests used:
[1] = target: human delta-like ligand 3 (DLL3) on SHP77 cells (human) (UniProt Q9NYJ7); assay: FACS on SHP77 cells
[2] = target: DLL3 endogenously expressed on NCI-H82 cells (UniProt Q9NYJ7); assay: FACS on NCI-H82 cells; antibody 4 nM
[3] = target: DLL3 endogenously expressed on NCI-H82 cells (UniProt Q9NYJ7); assay: FACS on NCI-H82 cells; antibody 20 nM
[4] = target: DLL3 endogenously expressed on NCI-H82 cells (UniProt Q9NYJ7); assay: FACS on NCI-H82 cells; antibody 0.8 nM
[5] = target: DLL3 endogenously expressed on NCI-H82 cells (UniProt Q9NYJ7); assay: FACS on NCI-H82 cells; antibody 100 nM
[6] = target: DLL3 endogenously expressed on NCI-H82 cells (UniProt Q9NYJ7); assay: FACS on NCI-H82 cells; antibody 0.16 nM
[7] = target: human DLL3 protein expressed on CHO-K1 recombinant cells (human DLL3 extracellular segment fused to EpCAM transmembrane and intracellular regions) (human) (UniProt Q9NYJ7); assay: FACS, CHO-K1 hDLL3 cells, 4 nM antibody
[8] = target: mouse DLL3 on CHO-K1-mDLL3 cells (mouse) (UniProt O88516); assay: FACS, CHO-K1-mDLL3 cells, 4 nM antibody
[9] = target: DLL3 endogenously expressed on NCI-H82 cells (UniProt Q9NYJ7); assay: FACS on NCI-H82 cells; antibody 0.032 nM
[10] = target: human DLL3 protein expressed on CHO-K1 recombinant cells (human DLL3 extracellular segment fused to EpCAM transmembrane and intracellular regions) (human) (UniProt Q9NYJ7); assay: FACS, CHO-K1 hDLL3 cells, 20 nM antibody
[11] = target: mouse DLL3 on CHO-K1-mDLL3 cells (mouse) (UniProt O88516); assay: FACS, CHO-K1-mDLL3 cells, 20 nM antibody
[12] = target: DLL3 endogenously expressed on NCI-H82 cells (UniProt Q9NYJ7); assay: FACS on NCI-H82 cells; antibody 0.0064 nM
[13] = target: human DLL3 protein expressed on CHO-K1 recombinant cells (human DLL3 extracellular segment fused to EpCAM transmembrane and intracellular regions) (human) (UniProt Q9NYJ7); assay: FACS, CHO-K1 hDLL3 cells, 0.8 nM antibody
[14] = target: human DLL3 protein expressed on CHO-K1 recombinant cells (human DLL3 extracellular segment fused to EpCAM transmembrane and intracellular regions) (human) (UniProt Q9NYJ7); assay: FACS, CHO-K1 hDLL3 cells, 100 nM antibody
[15] = target: mouse DLL3 on CHO-K1-mDLL3 cells (mouse) (UniProt O88516); assay: FACS, CHO-K1-mDLL3 cells, 0.8 nM antibody
[16] = target: mouse DLL3 on CHO-K1-mDLL3 cells (mouse) (UniProt O88516); assay: FACS, CHO-K1-mDLL3 cells, 100 nM antibody
[17] = target: DLL3 endogenously expressed on NCI-H82 cells (UniProt Q9NYJ7); assay: FACS on NCI-H82 cells; antibody 0.00128 nM
[18] = target: human DLL3 protein expressed on CHO-K1 recombinant cells (human DLL3 extracellular segment fused to EpCAM transmembrane and intracellular regions) (human) (UniProt Q9NYJ7); assay: FACS, CHO-K1 hDLL3 cells, 0.16 nM antibody
[19] = target: mouse DLL3 on CHO-K1-mDLL3 cells (mouse) (UniProt O88516); assay: FACS, CHO-K1-mDLL3 cells, 0.16 nM antibody
[20] = target: human DLL3 protein expressed on CHO-K1 recombinant cells (human DLL3 extracellular segment fused to EpCAM transmembrane and intracellular regions) (human) (UniProt Q9NYJ7); assay: FACS, CHO-K1 hDLL3 cells, 0.032 nM antibody
[21] = target: monkey DLL3 on CHO-K1-cyno DLL3 cells (cynomolgus monkey); assay: FACS, CHO-K1-cyno DLL3 cells, 4 nM antibody
[22] = target: mouse DLL3 on CHO-K1-mDLL3 cells (mouse) (UniProt O88516); assay: FACS, CHO-K1-mDLL3 cells, 0.032 nM antibody
[23] = target: human DLL3 protein expressed on CHO-K1 recombinant cells (human DLL3 extracellular segment fused to EpCAM transmembrane and intracellular regions) (human) (UniProt Q9NYJ7); assay: FACS, CHO-K1 hDLL3 cells, 0.0064 nM antibody
[24] = target: monkey DLL3 on CHO-K1-cyno DLL3 cells (cynomolgus monkey); assay: FACS, CHO-K1-cyno DLL3 cells, 20 nM antibody
[25] = target: mouse DLL3 on CHO-K1-mDLL3 cells (mouse) (UniProt O88516); assay: FACS, CHO-K1-mDLL3 cells, 0.0064 nM antibody
[26] = target: human DLL3 protein expressed on CHO-K1 recombinant cells (human DLL3 extracellular segment fused to EpCAM transmembrane and intracellular regions) (human) (UniProt Q9NYJ7); assay: FACS, CHO-K1 hDLL3 cells, 0.00128 nM antibody
[27] = target: monkey DLL3 on CHO-K1-cyno DLL3 cells (cynomolgus monkey); assay: FACS, CHO-K1-cyno DLL3 cells, 0.8 nM antibody
[28] = target: monkey DLL3 on CHO-K1-cyno DLL3 cells (cynomolgus monkey); assay: FACS, CHO-K1-cyno DLL3 cells, 100 nM antibody
[29] = target: mouse DLL3 on CHO-K1-mDLL3 cells (mouse) (UniProt O88516); assay: FACS, CHO-K1-mDLL3 cells, 0.00128 nM antibody
[30] = target: monkey DLL3 on CHO-K1-cyno DLL3 cells (cynomolgus monkey); assay: FACS, CHO-K1-cyno DLL3 cells, 0.16 nM antibody
[31] = target: monkey DLL3 on CHO-K1-cyno DLL3 cells (cynomolgus monkey); assay: FACS, CHO-K1-cyno DLL3 cells, 0.032 nM antibody
[32] = target: monkey DLL3 on CHO-K1-cyno DLL3 cells (cynomolgus monkey); assay: FACS, CHO-K1-cyno DLL3 cells, 0.0064 nM antibody
[33] = target: monkey DLL3 on CHO-K1-cyno DLL3 cells (cynomolgus monkey); assay: FACS, CHO-K1-cyno DLL3 cells, 0.00128 nM antibody
[34] = target: human DLL1 protein (Acro, Cat. No. DL1-H52H8) (human) (UniProt O00548); assay: ELISA, coated hDLL1; maximum over 0.1, 1, 10, 100 nM antibody
[35] = target: human DLL4 protein (Acro, Cat. No. DL4-H5227) (human) (UniProt Q9NR61); assay: ELISA, coated hDLL4; maximum over 0.1, 1, 10, 100 nM antibody
[36] = target: human DLL3 protein (extracellular segment, His tag) (human) (UniProt Q9NYJ7); assay: SPR (Biacore 8K), antibody captured on Protein A chip, DLL3 antigen in solution, 1:1 Langmuir fit
Sequence of human DLL3 protein (extracellular segment, His tag) (human) (Q9NYJ7 27-492): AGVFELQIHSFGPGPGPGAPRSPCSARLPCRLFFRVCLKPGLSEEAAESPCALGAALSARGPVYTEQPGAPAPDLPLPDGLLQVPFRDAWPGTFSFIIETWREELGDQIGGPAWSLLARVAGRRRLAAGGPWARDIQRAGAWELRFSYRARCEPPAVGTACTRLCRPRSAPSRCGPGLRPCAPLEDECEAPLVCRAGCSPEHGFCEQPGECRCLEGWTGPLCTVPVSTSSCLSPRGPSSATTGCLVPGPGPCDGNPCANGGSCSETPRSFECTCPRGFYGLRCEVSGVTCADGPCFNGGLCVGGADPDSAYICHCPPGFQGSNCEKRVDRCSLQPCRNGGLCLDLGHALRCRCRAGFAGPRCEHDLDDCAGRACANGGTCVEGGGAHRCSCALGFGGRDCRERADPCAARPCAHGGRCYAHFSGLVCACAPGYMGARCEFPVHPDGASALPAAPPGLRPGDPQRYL

Sequence of human delta-like ligand 3 (DLL3) on SHP77 cells (human) (Q9NYJ7 27-618, stated change not applied): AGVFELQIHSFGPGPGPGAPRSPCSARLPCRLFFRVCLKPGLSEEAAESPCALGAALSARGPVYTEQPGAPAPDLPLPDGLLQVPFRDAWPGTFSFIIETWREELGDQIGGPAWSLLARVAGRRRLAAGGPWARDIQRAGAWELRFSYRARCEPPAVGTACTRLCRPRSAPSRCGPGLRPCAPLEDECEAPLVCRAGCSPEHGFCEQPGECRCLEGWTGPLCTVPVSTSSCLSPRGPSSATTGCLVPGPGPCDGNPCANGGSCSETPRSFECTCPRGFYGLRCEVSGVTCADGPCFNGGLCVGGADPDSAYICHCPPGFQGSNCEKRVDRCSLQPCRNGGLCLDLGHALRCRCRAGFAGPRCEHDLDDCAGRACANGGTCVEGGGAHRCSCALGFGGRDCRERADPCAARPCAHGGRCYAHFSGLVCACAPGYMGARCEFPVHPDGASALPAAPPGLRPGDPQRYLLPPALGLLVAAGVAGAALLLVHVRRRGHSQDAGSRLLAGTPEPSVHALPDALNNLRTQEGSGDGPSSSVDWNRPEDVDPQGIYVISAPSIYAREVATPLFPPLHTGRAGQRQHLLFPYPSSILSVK
Sequence of DLL3 endogenously expressed on NCI-H82 cells (Q9NYJ7 27-618): as the sequence (Q9NYJ7 27-618, stated change not applied) above
Sequence of human DLL3 protein expressed on CHO-K1 recombinant cells (human DLL3 extracellular segment fused to EpCAM transmembrane and intracellular regions) (human) (Q9NYJ7 other isoform, or with tags, fused parts or gaps limits assumed): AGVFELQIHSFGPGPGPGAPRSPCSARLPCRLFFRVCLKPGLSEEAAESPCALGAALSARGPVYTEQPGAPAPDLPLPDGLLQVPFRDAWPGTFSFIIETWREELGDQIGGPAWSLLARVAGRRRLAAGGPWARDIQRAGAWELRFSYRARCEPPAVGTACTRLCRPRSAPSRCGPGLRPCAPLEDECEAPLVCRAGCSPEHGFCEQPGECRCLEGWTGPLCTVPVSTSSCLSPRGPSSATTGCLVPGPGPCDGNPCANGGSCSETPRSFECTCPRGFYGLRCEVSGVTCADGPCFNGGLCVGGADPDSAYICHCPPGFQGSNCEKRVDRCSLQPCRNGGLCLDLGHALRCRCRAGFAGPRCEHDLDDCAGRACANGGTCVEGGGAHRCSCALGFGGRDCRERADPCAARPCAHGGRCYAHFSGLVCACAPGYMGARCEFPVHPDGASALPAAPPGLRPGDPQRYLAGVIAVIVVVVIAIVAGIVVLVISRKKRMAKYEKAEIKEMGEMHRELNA
Sequence of monkey DLL3 on CHO-K1-cyno DLL3 cells (cynomolgus monkey) (chain, as listed by the source limits assumed): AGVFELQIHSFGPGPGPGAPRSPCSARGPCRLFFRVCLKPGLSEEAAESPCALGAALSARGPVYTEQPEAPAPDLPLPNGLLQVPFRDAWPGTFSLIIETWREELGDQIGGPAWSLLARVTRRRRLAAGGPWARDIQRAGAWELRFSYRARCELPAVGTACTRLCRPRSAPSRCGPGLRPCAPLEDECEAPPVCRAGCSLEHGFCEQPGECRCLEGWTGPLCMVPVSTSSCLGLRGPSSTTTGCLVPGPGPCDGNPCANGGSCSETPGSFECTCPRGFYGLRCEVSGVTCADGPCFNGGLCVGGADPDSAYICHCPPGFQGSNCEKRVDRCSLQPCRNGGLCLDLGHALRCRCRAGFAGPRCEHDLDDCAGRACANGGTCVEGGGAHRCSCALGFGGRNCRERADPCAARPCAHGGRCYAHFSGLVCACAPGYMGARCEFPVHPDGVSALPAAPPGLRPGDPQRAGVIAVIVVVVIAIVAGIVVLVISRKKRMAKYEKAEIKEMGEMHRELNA
Sequence of mouse DLL3 on CHO-K1-mDLL3 cells (mouse) (O88516 other isoform, or with tags, fused parts or gaps limits assumed): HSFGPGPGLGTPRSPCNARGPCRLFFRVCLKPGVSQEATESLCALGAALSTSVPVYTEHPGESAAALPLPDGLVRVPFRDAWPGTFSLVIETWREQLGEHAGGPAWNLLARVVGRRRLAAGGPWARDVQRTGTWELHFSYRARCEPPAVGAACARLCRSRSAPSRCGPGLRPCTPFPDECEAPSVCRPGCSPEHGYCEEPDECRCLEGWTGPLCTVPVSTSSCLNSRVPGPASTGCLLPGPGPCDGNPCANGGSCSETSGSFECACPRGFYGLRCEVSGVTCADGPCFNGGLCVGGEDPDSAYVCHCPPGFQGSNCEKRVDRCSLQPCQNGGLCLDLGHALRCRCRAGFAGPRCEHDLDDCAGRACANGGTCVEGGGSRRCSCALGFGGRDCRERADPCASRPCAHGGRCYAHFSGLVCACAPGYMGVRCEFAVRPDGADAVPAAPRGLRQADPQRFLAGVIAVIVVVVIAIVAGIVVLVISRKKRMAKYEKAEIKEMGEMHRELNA
Sequence of human DLL4 protein (Acro, Cat. No. DL4-H5227) (human) (Q9NR61 27-524 limits assumed): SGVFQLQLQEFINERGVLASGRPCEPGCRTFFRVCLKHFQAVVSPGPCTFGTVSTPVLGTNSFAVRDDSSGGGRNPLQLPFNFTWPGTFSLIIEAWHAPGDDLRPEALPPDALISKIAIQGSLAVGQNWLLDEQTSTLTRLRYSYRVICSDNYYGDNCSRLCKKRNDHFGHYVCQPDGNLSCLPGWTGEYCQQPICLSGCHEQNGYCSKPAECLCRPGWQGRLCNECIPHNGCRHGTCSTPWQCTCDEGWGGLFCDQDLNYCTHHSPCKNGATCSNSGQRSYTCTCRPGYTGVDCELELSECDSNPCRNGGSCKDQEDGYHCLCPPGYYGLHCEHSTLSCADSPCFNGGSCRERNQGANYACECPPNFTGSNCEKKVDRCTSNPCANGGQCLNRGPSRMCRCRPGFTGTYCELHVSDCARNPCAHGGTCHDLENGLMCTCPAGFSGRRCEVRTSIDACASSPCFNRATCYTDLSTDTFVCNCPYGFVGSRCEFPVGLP
Sequence of human DLL1 protein (Acro, Cat. No. DL1-H52H8) (human) (O00548 18-540 limits assumed): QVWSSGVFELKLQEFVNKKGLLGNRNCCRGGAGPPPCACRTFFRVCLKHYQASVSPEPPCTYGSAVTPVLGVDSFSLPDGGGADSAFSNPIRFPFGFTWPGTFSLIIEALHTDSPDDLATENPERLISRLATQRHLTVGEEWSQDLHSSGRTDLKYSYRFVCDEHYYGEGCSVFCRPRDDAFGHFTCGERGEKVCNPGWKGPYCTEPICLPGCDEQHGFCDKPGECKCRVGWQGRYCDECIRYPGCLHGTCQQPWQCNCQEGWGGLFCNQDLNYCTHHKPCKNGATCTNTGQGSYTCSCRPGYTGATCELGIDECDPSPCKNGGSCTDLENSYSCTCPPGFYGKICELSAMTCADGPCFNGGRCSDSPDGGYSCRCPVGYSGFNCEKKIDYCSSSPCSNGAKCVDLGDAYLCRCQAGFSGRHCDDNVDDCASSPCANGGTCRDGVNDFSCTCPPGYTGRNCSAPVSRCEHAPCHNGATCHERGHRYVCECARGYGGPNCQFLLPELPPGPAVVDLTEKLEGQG

B1: Hab015VL4VH6a-hFc (scFv, part only; not given: scFv linker and human IgG1 Fc, V domains shown, not shown: another chain or arm of the molecule; a dimerising Fc or GST; small tags and cut ends)
VL: NIVLTQSPATLSLSPGERATLSCKASENVGTYVSWFQQKPGQSPRLLIYGASNRYTGIPARFSGSGSGTDFTLTISSLEPEDFAVYYCGQFYSFPSTFGGGTKVEIK
VH: EVQLVESGGGLVKPGGSLRLSCAASGITFSNFWMNWVRQAPEKGLEWVGQIRLKSDDYATHYAESVKGRFTISREDSKNTVYLQMNSLKTEDTAVYYCTTGYYFDYWGQGTTVTVSS
B1 was tested, and the MFI at 0.00128 nM [1] was 101 MFI, the MFI at 0.0064 nM [1] was 114 MFI and the MFI at 0.032 nM [1] was 173 MFI. It also gave an MFI at 0.16 nM [1] of 361 MFI, an MFI at 0.8 nM [1] of 692 MFI and an MFI at 4 nM [1] of 821 MFI. For the same binder, the MFI at 20 nM [1] was 943 MFI, the MFI at 100 nM [1] was 1270 MFI and the MFI [2] was 1050. It also gave an MFI [3] of 1180, an MFI [4] of 913 and an MFI [5] of 1550. The MFI [6] was 469, the MFI [7] was 11200 MFI and the MFI [8] was 1260 MFI. It also gave an MFI [9] of 211, an MFI [10] of 12400 MFI and an MFI [11] of 1460 MFI. For the same binder, the MFI [12] was 133, the MFI [13] was 4370 MFI and the MFI [14] was 12200 MFI. The MFI [15] was 884 MFI, the MFI [16] was 1590 MFI and the MFI [17] was 118. For the same binder, the MFI [18] was 861 MFI, the MFI [19] was 361 MFI and the MFI [20] was 265 MFI. For the same binder, the MFI [21] was 6820 MFI, the MFI [22] was 170 MFI and the MFI [23] was 144 MFI. It also gave an MFI [24] of 7330 MFI, an MFI [25] of 130 MFI and an MFI [26] of 120 MFI. The MFI [27] was 4260 MFI, the MFI [28] was 7480 MFI and the MFI [29] was 118 MFI. The MFI [30] was 1150 MFI, the MFI [31] was 352 MFI and the MFI [32] was 153 MFI. It also gave an MFI [33] of 118 MFI, an Emax of OD450 nm binding value [34] of 0.49 OD450 nm and an Emax of OD450 nm binding value [35] of 0.64 OD450 nm. It also gave a Kd [36] of 0.000116 nM, a koff [36] of 2.03e-07 s⁻¹ and a kon [36] of 1.75e+06 M⁻¹ s⁻¹.

B2: Hab006VL1VH4-hFc (scFv, part only; not given: VL-VH linker and human IgG1 Fc, V domains shown, not shown: another chain or arm of the molecule; a dimerising Fc or GST; small tags and cut ends)
VL: DIQMTQSPSSLSASVGDRVTITCRATKSISKYLAWYQQKPGKAPKLLIFSGSTLQSGVPSRFSGSGSGTDFTLTISSLQPEDFATYYCQQHHEYPYTFGGGTKVEIK
VH: EVQLVQSGAEVKKPGASVKVSCKASGYTFTSYWMHWVRQAPGQRLEWMGVIDPSDSLANYNQEFKGRVTLTVDTSSSTAYMELSSLRSEDTAVYYCARDSTVVAPMDYWGQGTTVTVSS
Work on B2 yielded an MFI at 0.00128 nM [1] of 208 MFI, an MFI at 0.0064 nM [1] of 275 MFI and an MFI at 0.032 nM [1] of 458 MFI. For the same binder, the MFI at 0.16 nM [1] was 938 MFI, the MFI at 0.8 nM [1] was 1310 MFI and the MFI at 4 nM [1] was 1410 MFI. For the same binder, the MFI at 20 nM [1] was 1600 MFI, the MFI at 100 nM [1] was 1890 MFI and the MFI [2] was 291. The MFI [3] was 519, the MFI [4] was 412 and the MFI [5] was 626. For the same binder, the MFI [6] was 367, the MFI [7] was 12700 MFI and the MFI [8] was 615 MFI. For the same binder, the MFI [9] was 242, the MFI [10] was 13600 MFI and the MFI [11] was 627 MFI. The MFI [12] was 155, the MFI [13] was 7270 MFI and the MFI [14] was 14300 MFI. It also gave an MFI [15] of 529 MFI, an MFI [16] of 589 MFI and an MFI [17] of 126. For the same binder, the MFI [18] was 3100 MFI, the MFI [19] was 406 MFI and the MFI [20] was 1050 MFI. The MFI [21] was 8590 MFI, the MFI [22] was 246 MFI and the MFI [23] was 716 MFI. For the same binder, the MFI [24] was 9060 MFI, the MFI [25] was 187 MFI and the MFI [26] was 419 MFI. For the same binder, the MFI [27] was 7840 MFI, the MFI [28] was 9720 MFI and the MFI [29] was 126 MFI. For the same binder, the MFI [30] was 5000 MFI, the MFI [31] was 1730 MFI and the MFI [32] was 1380 MFI. The MFI [33] was 750 MFI, the Emax of OD450 nm binding value [34] was 0.07 OD450 nm and the Emax of OD450 nm binding value [35] was 0.15 OD450 nm. It also gave a Kd [36] of 0.568 nM, a koff [36] of 0.000221 s⁻¹ and a kon [36] of 389000 M⁻¹ s⁻¹.
